± gives the uncertainty stated by the source.
Experiment: self-splicing fitness, log relative to wild type (ln ratio); higher = more splicing; Tetrahymena group I intron in knt gene, E. coli kanamycin selection, DiMSum; sequences stand for … in CUCUCU…GGAGGGAAAAGUUAUCAGGCAUGCACCUGGUAGCUAGUCUUUAAACCAAUAGAUUGCAUCGGUUUAAAAGGCAAGACCGUCAAAUUGCGGGAAAGGGGUCAACAGCCGUUCAGUACCAAGUCUCAGGGGAAACUUUGAGAUGGCCUUGCAAAGGGUAUGGUAAUAAGCUGACGGACAUGGUCCUAACCACGCAGCCAAGUCCUAAGUCAACAGAUCUUCUGUUGAUAUGGAUGCAGUUCACAGACUAAAUGUCGGUCGGGGAAGAUGUAUUCUUCUCAUAAGAUAUAGUCGGACCUCUCCUUAAUGGGAGCUAGCGGAUGAAGUGAUGCAACACUGGAGCCGCUGGGAACUAAUUUGUAUGCGAAAGUAUAUUGAUUAGUUUUGGAGUACUCGUGGUCG
Summary of the method: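 Library with all eight P1ex-region intron nucleotides randomised, intron inside the knt kanamycin-resistance gene on pET-22b(+), in E. coli BL21(DE3). Cells grew overnight at 37°C or 30°C on LB agar with or without 25 μg/mL kanamycin (plus 100 μg/mL carbenicillin, 50 μM IPTG, 0.2% rhamnose), in six replicate transformations. Pooled colonies were amplicon-sequenced on Illumina HiSeq 2500. DiMSum fitness is the error-weighted combination of wild-type-normalised replicate fold changes, kanamycin versus none.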

| Sequence | self-splicing fitness (ln) (30 °C) | self-splicing fitness (ln) (37 °C) |
| --- | --- | --- |
| UGACAGCAAUAUUACGCCUU | -2.19 ± 0.12 | -1.15 ± 0.12 |
| ACUCAGCAAUAUUACGUAAU | -0.934 ± 0.057 | -0.31 ± 0.076 |
| GUGAAGCAAUAUUACGAUAA | -0.524 ± 0.15 | 0.6 ± 0.15 |
| CGGUAGCAAUAUUACGAUGG | -0.774 ± 0.1 | 0.646 ± 0.14 |
| UCGAAGCAAUAUUACGCAAC | -2.37 ± 0.42 | – |
| UAUGAGCAAUAUUACGCAGU | -1.98 ± 0.24 | -0.419 ± 0.21 |
| UACCAGCAAUAUUACGUAGA | -1.27 ± 0.072 | -0.78 ± 0.091 |
| CAGCAGCAAUAUUACGUAGU | -3.03 ± 0.12 | -2.56 ± 0.13 |
| AACUAGCAAUAUUACGGGGG | -2.73 ± 0.2 | -1.53 ± 0.22 |
| GUAUAGCAAUAUUACGCAAU | -1.98 ± 0.22 | -2.85 ± 0.4 |
| UAAAAGCAAUAUUACGACCU | -0.4 ± 0.085 | 0.0792 ± 0.098 |
| AACUAGCAAUAUUACGCGUU | -3.51 ± 0.19 | -2.48 ± 0.29 |
| GAUCAGCAAUAUUACGGGCC | -0.0569 ± 0.16 | -0.311 ± 0.18 |
| AGUAAGCAAUAUUACGCCGG | -2.45 ± 0.39 | -1.99 ± 0.34 |
| CGCAAGCAAUAUUACGCCAA | -2.12 ± 0.27 | -3.03 ± 0.35 |
| CAUGAGCAAUAUUACGCAUC | -2.04 ± 0.31 | -2.41 ± 0.33 |
| CAUAAGCAAUAUUACGGGCU | – | -2.73 ± 0.25 |
| AAUCAGCAAUAUUACGUGCC | -1.4 ± 0.14 | -0.598 ± 0.16 |
| CAAUAGCAAUAUUACGCGAG | -1.76 ± 0.086 | -0.754 ± 0.096 |
| ACAUAGCAAUAUUACGAAGC | – | -1.85 ± 0.42 |
| AGUCAGCAAUAUUACGAAAA | -1.63 ± 0.17 | -1.3 ± 0.2 |
| GGAUAGCAAUAUUACGUGAG | -1.33 ± 0.11 | 0.321 ± 0.1 |
| UACCAGCAAUAUUACGAGUU | -1.28 ± 0.073 | -0.876 ± 0.076 |
| CUUCAGCAAUAUUACGAGGC | -4.72 ± 0.41 | -1.59 ± 0.4 |
| AUUUAGCAAUAUUACGGACU | 0.0925 ± 0.11 | 0.805 ± 0.13 |

| Sequence | self-splicing fitness (ln) (30 °C) | self-splicing fitness (ln) (37 °C) |
| --- | --- | --- |
| GGAUAGCAAUAUUACGCUGG | -2.25 ± 0.15 | -1.05 ± 0.18 |
| CUCUAGCAAUAUUACGUCCC | -2.69 ± 0.27 | -3.71 ± 0.39 |
| GAUCAGCAAUAUUACGAUAG | -0.506 ± 0.067 | 0.475 ± 0.093 |
| UCAUAGCAAUAUUACGUGUC | -3.2 ± 0.21 | -3.08 ± 0.27 |
| AAAAAGCAAUAUUACGCACU | 0.146 ± 0.079 | 0.322 ± 0.083 |
| GAUUAGCAAUAUUACGCAUC | -2.32 ± 0.25 | – |
| CAUUAGCAAUAUUACGAUGG | -0.461 ± 0.076 | 0.0641 ± 0.083 |
| CCCAAGCAAUAUUACGCGAC | -3.2 ± 0.21 | -2.29 ± 0.19 |
| UGCCAGCAAUAUUACGCGUC | -2.05 ± 0.12 | -1.8 ± 0.15 |
| ACACAGCAAUAUUACGGUUA | -1.16 ± 0.059 | -0.485 ± 0.061 |
| AGGCAGCAAUAUUACGCCCU | -2.89 ± 0.4 | – |
| UGAAAGCAAUAUUACGCUGA | -2.09 ± 0.15 | -3.15 ± 0.23 |
| AACGAGCAAUAUUACGGAAC | -2.26 ± 0.23 | – |
| AUGUAGCAAUAUUACGCCAC | -3.49 ± 0.36 | – |
| AUAGAGCAAUAUUACGUUAC | -1.38 ± 0.19 | -1.37 ± 0.3 |
| UUGAAGCAAUAUUACGCAAU | -2.4 ± 0.21 | -2.02 ± 0.16 |
| UGGAAGCAAUAUUACGCGUG | -0.258 ± 0.091 | -0.135 ± 0.12 |
| CGUCAGCAAUAUUACGGAAG | -0.632 ± 0.088 | 0.304 ± 0.12 |
| GUUGAGCAAUAUUACGAUCU | -0.691 ± 0.093 | -1.12 ± 0.11 |
| ACUGAGCAAUAUUACGAUUG | – | -3.25 ± 0.37 |
| GGGCAGCAAUAUUACGCCUG | -1.27 ± 0.14 | 0.02 ± 0.13 |
| UAAUAGCAAUAUUACGGUGA | -3.61 ± 0.3 | -2.39 ± 0.26 |
| CGCAAGCAAUAUUACGAUAU | -2.7 ± 0.14 | -1.91 ± 0.13 |
| ACUUAGCAAUAUUACGGGCA | -1.04 ± 0.091 | 0.0835 ± 0.096 |
| UGGCAGCAAUAUUACGUUGC | -3.77 ± 0.19 | -2.37 ± 0.13 |

| Sequence | self-splicing fitness (ln) (30 °C) | self-splicing fitness (ln) (37 °C) |
| --- | --- | --- |
| CUGUAGCAAUAUUACGGAAU | -2.18 ± 0.13 | -3.57 ± 0.32 |
| UGGAAGCAAUAUUACGGUAG | -1.89 ± 0.12 | -1.82 ± 0.11 |
| UUCUAGCAAUAUUACGUUCU | -3.79 ± 0.46 | -1.26 ± 0.18 |
| UUCGAGCAAUAUUACGUUUG | -2.94 ± 0.14 | -2.99 ± 0.2 |
| GACUAGCAAUAUUACGGGCA | -0.911 ± 0.072 | 0.2 ± 0.085 |
| GCCUAGCAAUAUUACGGAGA | -1.16 ± 0.11 | -1.06 ± 0.11 |
| CCAUAGCAAUAUUACGGGCC | – | -1.32 ± 0.23 |
| CCAGAGCAAUAUUACGCCAU | -2.03 ± 0.19 | -2.75 ± 0.27 |
| GCCCAGCAAUAUUACGCCAC | -4.89 ± 0.38 | -2.44 ± 0.18 |
| CUGUAGCAAUAUUACGGUAU | -2.41 ± 0.15 | -2.08 ± 0.18 |
| AUUCAGCAAUAUUACGUCCU | -1.05 ± 0.066 | -0.0115 ± 0.11 |
| UUGUAGCAAUAUUACGUACG | -1.24 ± 0.12 | -0.138 ± 0.16 |
| AGCUAGCAAUAUUACGCCGC | -2.36 ± 0.2 | -3.06 ± 0.47 |
| GCCCAGCAAUAUUACGCUGA | -1.08 ± 0.13 | -0.784 ± 0.18 |
| UCCCAGCAAUAUUACGUAUA | -2.5 ± 0.1 | -1.33 ± 0.1 |
| CGGUAGCAAUAUUACGACAA | -2 ± 0.21 | 0.305 ± 0.1 |
| GGCGAGCAAUAUUACGAGCA | -1.44 ± 0.25 | -0.374 ± 0.28 |
| UACAAGCAAUAUUACGCCGC | – | -2.06 ± 0.43 |
| GACGAGCAAUAUUACGUGUG | -2.9 ± 0.087 | -1.01 ± 0.077 |
| UUUAAGCAAUAUUACGGCAC | -2 ± 0.27 | -1.87 ± 0.23 |
| CCCAAGCAAUAUUACGUGGC | -3.5 ± 0.13 | -2.8 ± 0.18 |
| AGCGAGCAAUAUUACGACCA | -1.37 ± 0.22 | -1.08 ± 0.22 |
| GAUCAGCAAUAUUACGGCGU | -0.292 ± 0.086 | 0.2 ± 0.1 |
| UGUGAGCAAUAUUACGGUGA | -2.19 ± 0.31 | -1.67 ± 0.2 |
| GCACAGCAAUAUUACGCGGA | -1.51 ± 0.14 | -0.87 ± 0.12 |

| Sequence | self-splicing fitness (ln) (30 °C) | self-splicing fitness (ln) (37 °C) |
| --- | --- | --- |
| ACAAAGCAAUAUUACGCCCG | -0.191 ± 0.13 | 0.177 ± 0.16 |
| AGACAGCAAUAUUACGUAAC | -3.82 ± 0.15 | -1.69 ± 0.15 |
| UUGUAGCAAUAUUACGCAAU | -2.98 ± 0.34 | – |
| GUAGAGCAAUAUUACGAAGU | -2.46 ± 0.23 | -0.951 ± 0.17 |
| ACUGAGCAAUAUUACGCAAU | -2.79 ± 0.28 | -2.03 ± 0.27 |
| GAGUAGCAAUAUUACGAUCU | -1.59 ± 0.18 | -0.479 ± 0.16 |
| GGAGAGCAAUAUUACGAGGU | -3.34 ± 0.32 | -3.01 ± 0.37 |
| CGAUAGCAAUAUUACGACGG | 0.185 ± 0.098 | 0.424 ± 0.14 |
| GGACAGCAAUAUUACGCUUC | -1.74 ± 0.19 | – |
| UGUGAGCAAUAUUACGUGGA | -2.53 ± 0.15 | -3.05 ± 0.22 |
| CUGUAGCAAUAUUACGAGAA | – | -2.78 ± 0.38 |
| CCGCAGCAAUAUUACGGUUC | -3.51 ± 0.28 | -3.67 ± 0.37 |
| CGGUAGCAAUAUUACGCCCU | 0.24 ± 0.19 | 0.785 ± 0.29 |
| UCAGAGCAAUAUUACGGUUC | -3.72 ± 0.33 | -1.84 ± 0.21 |
| AGCCAGCAAUAUUACGCACG | -2.34 ± 0.11 | -0.605 ± 0.12 |
| AGGAAGCAAUAUUACGGGUA | -2 ± 0.24 | -1.6 ± 0.21 |
| UAUAAGCAAUAUUACGGAAA | -2.19 ± 0.37 | -1.48 ± 0.33 |
| UCUGAGCAAUAUUACGUACG | – | -2.34 ± 0.35 |
| GCUGAGCAAUAUUACGCGUU | -2.22 ± 0.15 | -1.73 ± 0.22 |
| AACAAGCAAUAUUACGUAGG | -2.76 ± 0.086 | -1.57 ± 0.1 |
| GCCGAGCAAUAUUACGCUUU | -1.61 ± 0.082 | -0.235 ± 0.093 |
| GUAGAGCAAUAUUACGCUAA | -0.515 ± 0.07 | -0.264 ± 0.089 |
| AACGAGCAAUAUUACGUCCU | -1.04 ± 0.079 | -0.143 ± 0.095 |
| UUGGAGCAAUAUUACGCCCU | – | -1.44 ± 0.46 |
| GGCGAGCAAUAUUACGGCCA | -1.39 ± 0.21 | -1.35 ± 0.27 |

Source: the supplement of paper PMC7877785
